Experimental data from the nanobody polyreactivity screen of Harvey et al. (2022).

Experiment: yeast display, Sf9 membrane polyspecificity reagent, FACS + sequencing; frameworks hold sequencing errors
Outline: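 Synthetic nanobody libraries on Saccharomyces cerevisiae BJ5465 were galactose-induced for 36–48 hours, stained 1 hour at 4 °C with 10% biotinylated, detergent-solubilized Sf9 membrane reagent and enriched on streptavidin microbeads. FACS then separated cells into low and high (top ~1%) gates by anti-HA (expression) and streptavidin (reagent binding) fluorescence. Genes were colony-PCR amplified, MiSeq 2 × 250 sequenced and CDR-length filtered. A clone's polyreactivity label is that of its gate of origin.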
In the case of “QVQLVESGGGLVQAGGSLRLSCAASGSIFSSYAMGWYRQAPGKERELVAAISSSGDSTYADSVKGRFTISRDNAKNTVYLQMNSLKPEDTAVYYCAVGGAGSDDYWGQGTQVTVSS”, the “polyreactivity (PSR sort gate)” value is reported as “low polyreactivity”.
With “QVQLVESGGGLVQAGGSLRLSCAASGRTFKYYAMGWYRQAPGIEREFVAAITVSGGSTYYADSVKGRFTISRDNAKNPVYLQMNSLKPEDTAVYYCAARYQRYSSKTIQNEDYWGQGTQVTVSS” the “polyreactivity (PSR sort gate)” value was “high polyreactivity”.
For “QVQLVESGGGLVQAGGSLRLRCAASGRILVRYAMGWYRQAPGKERELVAAISRGGSTTYADSVKGRFTISRDNAKNTVYLQMNSLKPEDTAVYYCAAGRYPYNRDYWGQGTQVTVSS”, the “polyreactivity (PSR sort gate)” value was “high polyreactivity”.
For “QVQLVESGGGLVQAGGSLRLSCAASGRIFVRYAMGWYRQAPGKEREFVAAINYSGGSTYADSVKGRFTISRDNAKNSVFLQMIRLKPEDTAVYYCAADYQGITSSDPYDYWGQGTQVTVSS”, the “polyreactivity (PSR sort gate)” value was “low polyreactivity”.
For “QVQLVESGGGLVQAGGSLRLSCAASGSTFGYYAMGWYRQAPGKERELVAAISRSGTRTYYADSVKGRFTISRDNAKYTVYLQMNSLKPEDTAVYYCAVKGPARGYDYWGQGTQVTVSS”, the “polyreactivity (PSR sort gate)” value was “high polyreactivity”.
In the case of “QVQLVESGGGLVQAGGSLRLSCAASGIISRYYAMGWYRQAPGKERELVASISSGVGTNYADSVKGRFTISRDNAKNTVYLQMNSLKPEDTAVYYCAARFRYYRHYYWGQGSQVTVSS”, the “polyreactivity (PSR sort gate)” value is reported as “high polyreactivity”.
With “QVQLVESGGGLVQAGGSLRLSCAASGNIFYRYAMGWYRQAPGKERELVAAIRSGSSTNYADSVKGRFTISRDNAKNTVYLQMNSLKPEDTAVYYCAARSKYTHSRQSDYWGQGTQVTVSS” the “polyreactivity (PSR sort gate)” value was “low polyreactivity”.
In the case of “QVQLVESGGGLVQAGGSLRLSCAASGFTFTKYAMGWYRQAPVKERELVADITSGTSTYNADSVKGRFTISRDNAKNTVYLQMNSLKPEDTAVYYCAAPLYGRYSYGYWGQGTQVTVSS”, the “polyreactivity (PSR sort gate)” value is reported as “high polyreactivity”.
In the case of “QVQLVESGGGLVQAGGSLRLSCAASGLTFDKYTMGWYRQAPGKERELVARISTSGSRTYYADSVKGRFTISRDIAKNTVYLQMNSLKPEDTAVYYCNKDGWIRRRRGYDYWGQGTQVTVSS”, the “polyreactivity (PSR sort gate)” value is reported as “high polyreactivity”.
With “QVQLVESGGGLVQAGGSLRLSCAASGSTFQYYAMGGYRQAPGKERELVAGITWRDGNTYYADTVKGRFTISRDNANNTVYLQMNSLKPEDTAVYYCAARRYFVIYYPYDYWGQGTQVTVSS” the “polyreactivity (PSR sort gate)” value was “low polyreactivity”.
For “QVQLVESGGGLVQAGGSLRLSCAASGSIFVGNAMGWYRQAPGKERELVAAISSSGGRTFYADSVKGRFTISRDNAKNTVYLQMNSLKPEDTAVYYCAAVYTHWQQRMDYWGQGTQVTVSS”, the “polyreactivity (PSR sort gate)” value was “high polyreactivity”.
With “QVQLVESGGGLVQAGGSLRLSCAASGRIFRRYAMGWYREAPGKERELVAAITASGGITYYADSVKGRFTISRDNAKNTVYLQMNSLKPEDTAVYYCAARGSSGYDYWGQGTQVTVSS” the “polyreactivity (PSR sort gate)” value was “high polyreactivity”.
In the case of “QVQLVESGGGLVQAGGSLRLSCDASGSTLVVNAMGWYRPAPGKERELVAAISDGGSTNYADSVKGRFTISRDNAMNTVYLQMNSLKPEDTADYYCAKDCETEVIDDYWGQGTQVTVSS”, the “polyreactivity (PSR sort gate)” value is reported as “low polyreactivity”.
For “QVQLVESGGGLVQAGGSLRLSCAASGSNFQFNAMGWYRQAPGKEREFVAAITSSAGRTYYADSVKGRFTISRDNAKNTVYLQMNSLKPEDSAVYYCGDTFYRRYVDLGYWGQGTQVTVSS”, the “polyreactivity (PSR sort gate)” value was “high polyreactivity”.
For “QVQLVESGGGLVQAGGSLRLSCAASGFTFGGYAMGCYRQAPGKESELVAAISGRGGRTYYADSVKGRFTISRDNAKNTVYLQMNSLKPEDTAVYYCAAPTNHWTRLSGDYWGQGTQVTVSS”, the “polyreactivity (PSR sort gate)” value was “high polyreactivity”.
For “QVQLVESGGGLVQAGGSLRLTCAASGRIIIGYVMGWYRQAPGKERELVATISYSGGSTYADSVKGRFTISRDNAKNTVYLQMNSLKPEDTAVYYCAARPYYRYYRYPYGYWGQGTQVTVSS”, the “polyreactivity (PSR sort gate)” value was “high polyreactivity”.
In the case of “QVQLVESGGGLVQAGGSLRLSCAASGSTFPRNAMVWYIQAPGKERELVAAISRRGGSTYYADSVKGLFTISRDNAKNTVYLQMNSLKPEDTAVYYCAAATRYAIYGRYSRYDYWGQGTQVTVSS”, the “polyreactivity (PSR sort gate)” value is reported as “high polyreactivity”.
With “PVQLVESGGGLVQAGGSLRISCAASGSIFRVNAMGWYRQAPGKERELVAAITTNGGSTYYADSVKGRFTISRDNAKNTVYLQMNSLKPEDTAVYYCAADYSLPWSWLYEYWGQGTQVTVSS” the “polyreactivity (PSR sort gate)” value was “low polyreactivity”.
In the case of “QVQLVESGGGLVQAGGSLRLSCAASRSIFQSYDMGWYRQAPGKERELVAAISWSGSTTYYADSVKGRFTISRDNAKNTVYLQMNSLKPEDTAVYYCAFDSNTPDWWAVIYGYWGQGTQVTVSS”, the “polyreactivity (PSR sort gate)” value is reported as “low polyreactivity”.
For “QVQLVESGGGLVQAGGSLRLSCAASGRIFTRNAMGLYRQAPGKERELVAAISWRGGSTYYADSVKGRFTISRDNAKNTVYLQMNSLKPEDTAVYYCAAQPWFGRAARYRTTYYYWGQGTQVTVSS”, the “polyreactivity (PSR sort gate)” value was “high polyreactivity”.
With “QVQLVESGGGLVQAGGSLRLSCAASGRIFYRNAMGWYRQAPGKERELVAAISRRGGSTSYADSVKGRFTISRDNANNTVYLQMNSLKPEDTAVYYCAASRFRTGQEDDYWGQGTQVTVSS” the “polyreactivity (PSR sort gate)” value was “high polyreactivity”.
In the case of “QVQLVESGGGLVQAGGSLRLSCAASGSIFSGNTMGCYRQAPGKERELVAAISGRGSNTYYADSVKGRFTISRDNAKNTVYLQMNSLKPEDTAVYYCAGPWVVRRTAYDYWGQGTQVTVSS”, the “polyreactivity (PSR sort gate)” value is reported as “high polyreactivity”.
With “QVQLVESGGGLVQAGGSLRLSCAASVFTFNDYAMGWYRQAPGKERELVAAIDWSGGRTYYADSVKGRFTISRDNAKNTVYLQMNSLKPEDTAVYYCAAVLYSRLYWYRLDYWGQGTQVTVSS” the “polyreactivity (PSR sort gate)” value was “low polyreactivity”.
For “QVQLVESGGGLVQAGGSLRLSCAASGYIFHSYMGSYRQAPGKETELVAAITSGGSTYYADSVKGRFTISRDNAKNTFFLKMNSLKPEDTAVYYCGAGWWYYLHMDYWGQGTQVTVSS”, the “polyreactivity (PSR sort gate)” value was “high polyreactivity”.
In the case of “QVQLVESGGGLVQAGGSLRLSCAASGFTIYNNVMVWYRQAPGKERELVAAITSSGGRTYYADSVKGRFTISRDIAKNTVYLQMNSLKPEDTAVYYCNALYFRKGGYWGQGTQVTVSS”, the “polyreactivity (PSR sort gate)” value is reported as “high polyreactivity”.
With “QVQLVESGGGLVQAGGSLRLSCAASGRIFYRYAMGGYRQAPGKERELVASITTSGDSTYYADSVKGRFTISRDNAKNTVYLQMNSLKPEDTGVYYCAASSYRGRRYDYWGQGTQVTVSS” the “polyreactivity (PSR sort gate)” value was “high polyreactivity”.
In the case of “QVQLVESGGGLVQAGGSLRLSCAASGRIFRYNVMGWYRQAPGKERELVAAITSRGGSTYYADSVKGRFTISRDNAKNTVYLQMNSLKPEDTAVYYCAAYPWEFGTYNYWGQGTQVTVSS”, the “polyreactivity (PSR sort gate)” value is reported as “high polyreactivity”.
For “QVQLVESGGGLVHAGGSLRLSSAASGRTFLSYTMGWYRQAPGKERELVAVISRSGGRTYYADSVKGRFTISRDNATNTVYLQMNSLKPEDTADYYCAADTYRGYDFDYWGQGSQVTVSS”, the “polyreactivity (PSR sort gate)” value was “high polyreactivity”.
With “QVQLVESGGGLVQARGTRRLSSAACGRTFGSYAMGWYRQAPGKERELVAAISRSDGSTYYADSVKGRFSISRDNEKNTVYFQMNSLKPEDTAVYYCAAKRWYVSYDYDYWGQGTQVTVSS” the “polyreactivity (PSR sort gate)” value was “high polyreactivity”.
With “QVQLVESGGGLVQAGGSLRLSCAASGSIFYYYAMGWYRQAPGKERELVATITSGGTTYYADSVKGRFTISRDNAKNTVYLQMISLKPEDTAVYYCAKRVKYHLYWGQGTQVTVSS” the “polyreactivity (PSR sort gate)” value was “low polyreactivity”.
For “QVQLVESGGALVQAGGSLRLSCSASGSIFHGYIMGWYRQAPGKERELVAAITTGGSTNYADSVKGRFTISRDNAKNTVYLQMNSLKPEDTAVYDCATDPYVDPSRDYLELGGYWGQGTQVTVSS”, the “polyreactivity (PSR sort gate)” value was “low polyreactivity”.
In the case of “QVQLVESGGGLVQAGGSLRFSCAASGRIFFWYAMGWYRQAPGKEWELVAAISRDGGTTYYADSVKGRFTISRDNAKNTVYLQMNSLKPEDTAVYYCNAEARSRRYRYDYWGQGTQVNVSS”, the “polyreactivity (PSR sort gate)” value is reported as “high polyreactivity”.
For “LVQLVESGGGLVQAGGSLRVSCAASGLIIYDNAMGGYRQAPGKEREVVATISSGGRTYYADSVKGRFTISRDNAKNTVYLQMNSLKPEDTAVYYCAVDPGYSWYAQYDYWGQGTQVTVSS”, the “polyreactivity (PSR sort gate)” value was “low polyreactivity”.
In the case of “QDQLVESGGGLVQAGGSLRLSCAASAFIFSSNAMGWYRQAPGKEREFVAAISFRGGTTYYADSVKGRFTISRDNAKNTVYLQMNSLKPEDTAVYYCNAVRWRSGRWWWYDYWGQGTQVTVSS”, the “polyreactivity (PSR sort gate)” value is reported as “low polyreactivity”.
In the case of “QVQLVESGGGLVQAGGSLRLSCAASGRTFWLYAMGWYRQAPGKEREFVASISSSGDSTYYADSVKGRFTISRDNAKNTVYLQMNSLKPEDTAVYYCAARPSRRYLRNGLDYWGQGTQVTVSS”, the “polyreactivity (PSR sort gate)” value is reported as “high polyreactivity”.
In the case of “QVQLVESGGGLVQAGGSLRLSCAASGRIFLGNAMGWYRQAPGKDRELVAAITNGGGSTYYADSVKGRFTISRDNAKNTVYLQMNSLKPEDTAVYYCARGYKKSVQRFEYWGQGTQVTVSS”, the “polyreactivity (PSR sort gate)” value is reported as “high polyreactivity”.
For “QVQLVESGGGLVQAGGSLRLSCAASGLTFWVYTMGWYRQAPGKERELVARITSRGASTYYADSVKGRFTISRDNAKNTVYLQMNSLKPEDTAVYYCATDRYRIYPDYDYWGQGTQVTVSS”, the “polyreactivity (PSR sort gate)” value was “high polyreactivity”.
In the case of “QVQLVESGGGLVQAGGSLRLSCAASGFTFTHYAMGWYRQAPGKERELVAAISTSGGSTYYADSVKGRFTISRDNAKNTVYLQMNSLKPEDTAVYYCAARRDGWVQWGYYYWGQGTQVTVSS”, the “polyreactivity (PSR sort gate)” value is reported as “low polyreactivity”.
With “QVQLVESGGGLVQAGGSLRLSCAASGSIFYRYAMGWYRQAPGKERELVASISSGVSTNYADSVKGRFTISRDNAKNTVYLQMNSLKPEDTAVYYCAAYYRGWSSSYWYPAYNYWGQGTQVTVSS” the “polyreactivity (PSR sort gate)” value was “low polyreactivity”.
For “QVQLVESGGGLVQAGGSLRLSCAASGRIFYGNAMGWYRQAPGKERELVAAISSGTSTNYADSVKGRFTISRDNAKNTVYLEMNRLKPEDTAVYDCAAGSYSRYLYSLYFDFDYWGQGTQVTVSS”, the “polyreactivity (PSR sort gate)” value was “low polyreactivity”.
With “QVQLVESRGGLVQAGGSLRLSCAASRSIFNINTMGWYRQAPGKERELVAAISYSGGSTYYADSVKGRFTISRDNAKNTVYLQKNSLKREDTAVYYCNVSPTTSGDGGGYDSWGQGTKVTVSS” the “polyreactivity (PSR sort gate)” value was “low polyreactivity”.
In the case of “QVQLVESGGGLVQAGGSLRLSCAASGSIFPVNVMGWYRQEPGKERELVARITSGGSTIYADSVKGRFTISRDNAKNTVYLQMNSLKPEDTAVYYCAARQYHWYLPSYWYRYDYWGQGTQVTVSS”, the “polyreactivity (PSR sort gate)” value is reported as “high polyreactivity”.
In the case of “QVQIVESGGGLVQAGGSLRLSCAASGSTFYRNAMGWYRQAPGKERELVAAIRWTGGNTYYADSVKGRFTISRDNAKNTVYLQMNSLKPEDTAVYYCAARSPLYGHGYWGQGTQVTVSS”, the “polyreactivity (PSR sort gate)” value is reported as “high polyreactivity”.
